Biological target: human CD47/IAP receptor on HUCB-EPC (human) (UniProt Q08722)
Assay: cell-based or functional assay

- HUCB-EPC adhesion onto gelatin-vitronectin after pre-treatment with 40 µg/ml, compared with BSA: 14.6%
- HUCB-EPC adhesion onto gelatin-vitronectin after pre-treatment with 40 µg/ml, compared with control mouse IgG1: 16.6%
B1: mouse monoclonal anti-human CD47 IgG1 (clone B6H12) (antibody, from another filing, V domains shown)
VH: EVQLVESGGDLVKPGGSLKLSCAASGFTFSGYGMSWVRQTPDKRLEWVATITSGGTYTYYPDSVKGRFTISRDNAKNTLYLQIDSLKSEDTAIYFCARSLAGNAMDYWGQGTSVTVSS
VL: DIVMTQSPATLSVTPGDRVSLSCRASQTISDYLHWYQQKSHESPRLLIKFASQSISGIPSRFSGSGSGSDFTLSINSVEPEDVGVYYCQNGHGFPRTFGGGTKLEIK
